Laboratory results: paper PMC9325753, “Chilling-induced phosphorylation of IPA1 by OsSAPK6 activates chilling tolerance responses in rice”

T1: GST-IPA1 (Oryza sativa, UniProt Q7EXZ2 1-417)
T1 sequence: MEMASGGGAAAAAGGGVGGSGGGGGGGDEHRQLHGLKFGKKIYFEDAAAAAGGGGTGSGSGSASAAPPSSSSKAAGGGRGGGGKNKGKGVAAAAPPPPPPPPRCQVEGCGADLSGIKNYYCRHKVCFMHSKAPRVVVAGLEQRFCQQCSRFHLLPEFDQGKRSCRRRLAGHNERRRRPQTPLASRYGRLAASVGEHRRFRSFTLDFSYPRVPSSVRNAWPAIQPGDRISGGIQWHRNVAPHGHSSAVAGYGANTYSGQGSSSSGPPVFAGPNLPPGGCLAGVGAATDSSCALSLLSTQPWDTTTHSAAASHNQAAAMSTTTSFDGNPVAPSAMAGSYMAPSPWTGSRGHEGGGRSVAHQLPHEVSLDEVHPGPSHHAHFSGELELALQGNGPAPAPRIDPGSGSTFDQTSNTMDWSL


Molecular target: T1, GST-IPA1
Experiment: EMSA; LightShift Chemiluminescent EMSA Kit (Thermo 20148) per manufacturer; buffer, salt, pH and temperature not stated
Conditions: protein: recombinant; tags: N-terminal GST (pGEX-4t-1); label: 5'-biotin on strand 1; blunt

Row | Binder | binding result
1 | Biotin-P2 (OsCBF3 promoter) (dsDNA) DNA 1: TACCTAGGTTTTAAGTTATAGTACTTACAATTTTTTGATGAG DNA 2: CTCATCAAAAAATTGTAAGTACTATAACTTAAAACCTAGGTA | binds
2 | Biotin-P2-m (GTAC to ATAC) (dsDNA) DNA 1: TACCTAGGTTTTAAGTTATAATACTTACAATTTTTTGATGAG DNA 2: CTCATCAAAAAATTGTAAGTATTATAACTTAAAACCTAGGTA | no binding
